Columns and labels:
SHP-2 = SHP-2 (UniProt Q06124); assay: PepSPOT peptide array overlay; conditions: reference: nonphosphorylated 13-mer peptides; sites Y14
CSK = CSK (UniProt P41240); assay: PepSPOT peptide array overlay; conditions: reference: nonphosphorylated 13-mer peptides; sites Y14

caveolin-1 13-mers within 1-28 (from UniProt Q03135) pY14 13-mer peptides
binding against the reference (SHP-2): stronger
binding against the reference (CSK): stronger

Reference: PMC3954793, “SHP-2 Binds to Caveolin-1 and Regulates Src Activity via Competitive Inhibition of CSK in Response to H2O2 in Astrocytes” (PLoS ONE, 2014)
